Test results reported in patent US20220348658A1, “ANTI-T CELL ANTIGEN-BINDING MOLECULE TO BE USED IN COMBINATION WITH CYTOKINE INHIBITOR” (Chugai Seiyaku Kabushiki Kaisha, priority 2019, published 2022).

Legend:
[1] = test system: Hepa1-6/hGPC3 cancer cells; assay: Syngeneic mouse model: pre-administration of MR-16-1 and drug efficacy of GC33/2C11; format: in vivo, C57BL/6 mice
Experimental: In a test using a syngeneic mouse model, a study for evaluating the effect of pre-administration of an anti-mouse IL6 receptor antibody, MR-16-1 (see Okazaki M, et al., Characterization of anti-mouse interleukin-6 receptor antibody, Immunol Lett. 2002 Dec. 3; 84(3):231-40; and Saito T, et al., Preparation of soluble murine IL-6 receptor and anti-murine IL-6 receptor antibodies, J. Immunol., 47 (1991), pp. 168-173), on the drug efficacy of ERY974 surrogate antibodies was carried out as follows. Hepa1-6/hGPC3 cancer cells, which are mouse cancer cell line Hepa1-6 made to highly express human GPC3, were transplanted subcutaneously in C57BL/6 mice. The day of transplantation was set to day 0. On day 18, grouping was performed according to tumor size and body weight. MR-16-1 was administered into the tail vein at 30 mg/kg on day 18. On day 19, the day after MR-16-1 administration, GC33/2C11 was administered into the tail vein at 0.2 and 5 mg/kg. MR-16-1 was administered six times in total (on days 18, 21, 25, 28, 32 and day 35). GC33/2C11 was administered once, only on day 19. GC33/2C11 was an antibody comprising the amino acid sequence of SEQ ID NO: 443 as the GPC3-side heavy chain, the amino acid sequence of SEQ ID NO: 444 as the GPC3-side light chain, the amino acid sequence of SEQ ID NO: 445 as the CD3-side heavy chain, and the amino acid sequence of SEQ ID NO: 446 as the CD3-side light chain.

[2] = test system: Hepa1-6/hGPC3 cancer cells; assay: Syngeneic mouse model: post-administration of MR-16-1 and drug efficacy of GC33/2C11; format: in vivo, C57BL/6 mice
Experimental: In a study using a syngeneic mouse model, a study for evaluating the effect of post-administration of an anti-mouse IL6 receptor antibody, MR-16-1, on the drug efficacy of ERY974 surrogate antibodies was carried out as follows. Hepa1-6/hGPC3 cancer cells, which are mouse cancer cell line Hepa1-6 made to highly express human GPC3, were transplanted subcutaneously in C57BL/6 mice. The day of transplantation was set to day 0. On day 16, grouping was performed according to tumor size and body weight. On day 17, GC33/2C11 was first administered into the tail vein at 0.2 or 5 mg/kg, and two hours later, MR-16-1 was administered into the tail vein at 30 mg/kg. MR-16-1 was administered six times in total (on days 17, 21, 24, 28, 31, and day 35). GC33/2C11 was administered once, only on day 17.

B1: GC33/2C11: ERY974 surrogate antibody; GPC3-side chains SEQ ID NO: 443/444, CD3-side chains SEQ ID NO: 445/446 (protein)
chain 1: QVQLVQSGAEVKKPGASVKVSCKASGYTFTDYEMHWIRQPPGQGLEWIGAIDPKTGDTAYSQKFKGRVTLTADKSTSTAYMELSSLTSEDTAVYYCTRFYSYTYWGQGTLVTVSSAKTTPPSVYPLAPGSAAQTNSMVTLGCLVKGYFPEPVTVTWNSGSLSSGVHTFPAVLQSDLYTLSSSVTVPSSTWPSETVTCNVAHPASSTKVDKKIVPRDCGCKPCICTVKEVSKVFIFPPKPKDVLTITLTPKVTCVVVDISKDDPEVQFSWFVDDVEVHTAQTQPREEQFNSTFRSVSELPIMHQDWLNGKEFKCRVNSAAFPAPIEKTISKTKGRPKAPQVYTIPPPKEQMAKDKVSLTCMITDFFPEDITVEWQWNGQPAENYKNTQPIMDTDGSYFVYSELNVQKSNWEAGNTFTCSVLHEGLHNHHTEKSLSHSPGK
chain 2: DIVMTQSPLSLPVTPGEPASISCRSSQSLVHSNRNTYLHWYQQKPGQAPRLLIYKVSNRFSGVPDRFSGSGSGTDFTLKISRVEAEDVGVYYCSQNTHVPPTFGQGTKLEIKRADAAPTVSIFPPSSEQLTSGGASVVCFLNNFYPKDINVKWKIDGSERQNGVLNSWTDQDSKDSTYSMSSTLTLTKDEYERHNSYTCEATHKTSTSPIVKSFNRNEC
chain 3: EVQLVESGGGLVQPGKSLKLSCEASGFTFSGYGMHWVRQAPGRGLESVAYITSSSINIKYADAVKGRFTVSRDNAKNLLFLQMNILKSEDTAMYYCARFDWDKNYWGQGTMVTVSSAKTTPPSVYPLAPGSAAQTNSMVTLGCLVKGYFPEPVTVTWNSGSLSSGVHTFPAVLQSDLYTLSSSVTVPSSTWPSETVTCNVAHPASSTKVDKKIVPRDCGCKPCICTVKEVSKVFIFPPKPKDVLTITLTPKVTCVVVDISKDDPEVQFSWFVDDVEVHTAQTQPREEQFNSTFRSVSELPIMHQDWLNGKEFKCRVNSAAFPAPIEKTISKTKGRPKAPQVYTIPPPKEQMAKDKVSLTCMITDFFPEDITVEWQWNGQPAENYKNTQPIMRTDGSYFVYSKLNVQKSNWEAGNTFTCSVLHEGLHNHHTEKSLSHSPGK
chain 4: DIQMTQSPSSLPASLGDRVTINCQASQDISNYLNWYQQKPGKAPKLLIYYTNKLADGVPSRFSGSGSGRDSSFTISSLESEDIGSYYCQQYYNYPWTFGPGTKLEIKRADAAPTVSIFPPSSEQLTSGGASVVCFLNNFYPKDINVKWKIDGSERQNGVLNSWTDQDSKDSTYSMSSTLTLTKDEYERHNSYTCEATHKTSTSPIVKSFNRNEC
modifications: H0000-mF18mN4; GL4-mk1; 2C11VH-mF18mP4; 2C11VL-mk1
Antitumor activity (%) ([1]; Group 2: GC33/2C11 0.2 mg/kg tail vein, day 19, alone): 80% | Antitumor activity (%) ([1]; Group 3: GC33/2C11 5 mg/kg tail vein, day 19, alone): 110% | Antitumor activity (%) ([1]; Group 5: GC33/2C11 0.2 mg/kg day 19 after pre-administration of MR-16-1 (30 then 15 mg/kg, day 18, 21, 25, 28, 32, 35)): 99% | Antitumor activity (%) ([1]; Group 6: 5 mg/kg day 19 after pre-administration of MR-16-1 (30 then 15 mg/kg, day 18, 21, 25, 28, 32, 35)): 107% | Antitumor activity (%) ([2]; Group 2: GC33/2C11 0.2 mg/kg tail vein, day 17, alone): 102% | Antitumor activity (%) ([2]; Group 3: GC33/2C11 5 mg/kg tail vein, day 17, alone): 109% | Antitumor activity (%) ([2]; Group 5: GC33/2C11 0.2 mg/kg day 17, 2 hours before MR-16-1 (30 then 15 mg/kg, day 17, 21, 24, 28, 31, 35)): 103% | Antitumor activity (%) ([2]; Group 6: 5 mg/kg day 17, 2 hours before MR-16-1 (30 then 15 mg/kg, day 17, 21, 24, 28, 31, 35)): 109%
